Experimental data as given in patent US20250381223A1 (UTC THERAPEUTICS SHANGHAI, published 2025).
“And” between values parts separate entries of the source, which are not always exact repeats. Identical values can stand only once.

Assays:
[1] = target: T1, recombinant human CD40-His antigen protein (human, UniProt P25942 21-193); assay: ELISA; plate coated with CD40-His 2 µg/mL; IgG1, anti-human IgG-Fc (HRP)
T1 construct: Bought protein; also called recombinant CD40-His protein; CD40 antigen; not shown: His tag
Method: Therefore, the affinity of the CD40 antibody (in the form of a human classical monoclonal antibody IgG1) was detected by in vitro binding ELISA. The brief experimental procedures were as follows: [0569] (1) Construction of antibody expression plasmid: an antibody VH region was subcloned into a pEF vector containing a human CH1-Fc antibody fragment, and an antibody VL region was subcloned into a pEF vector containing a human CL antibody fragment. [0570] (2) Antibody expression: 33 μg of an antibody heavy chain expression plasmid and 67 μg of an antibody light chain expression plasmid were co-transfected into 293F suspension cells by PEI. After 4 days of culture, the supernatant was collected by centrifugation. [0571] (3) Antibody purification: the protein supernatant and protein A purification medium were incubated on ice for 2 h, and then the supernatant and the purification medium were separated by a gravity column. The purification medium was rinsed thoroughly with 100 mL of pre-cooled PBS to remove impure proteins, and finally, the target protein was eluted from the purification medium with 5-10 mL of 0.1 M Glycine-HCl (pH 2.7), and 1/10 volume of 1 M Tris-HCl (pH 9.0) was immediately added to neutralize the antibody. […] After the protein concentration was measured with A280, the antibody was packaged and cryopreserved at −80° C. […]

[2] = target: T2, CD123-Fc recombinant protein (human, UniProt P26951 19-305); assay: flow cytometry of T cells electroporated with CAR mRNA, stained with CD123-Fc + PE-anti-hIgG-Fc
T2 construct: construct not described; not shown: Fc part
T2 sequence (looked up): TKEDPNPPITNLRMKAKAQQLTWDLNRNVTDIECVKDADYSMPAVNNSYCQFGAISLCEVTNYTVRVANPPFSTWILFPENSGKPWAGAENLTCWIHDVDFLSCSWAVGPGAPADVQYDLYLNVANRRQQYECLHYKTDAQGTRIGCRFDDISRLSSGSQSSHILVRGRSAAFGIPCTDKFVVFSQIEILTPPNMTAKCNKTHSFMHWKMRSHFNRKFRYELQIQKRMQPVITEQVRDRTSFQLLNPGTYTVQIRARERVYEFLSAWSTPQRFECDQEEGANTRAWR
Method: (§1) The CD123 CAR mRNAs obtained in Example 35 above were each introduced into T cells by electroporation according to the following procedures: T cells were collected, washed with the Opti-MEM medium, and resuspended at 1×10e⁷/mL with the Opti-MEM medium; 10 μg of RNA and 100 μL of T cells were aliquoted, mixed well, and electroporated under the following parameters (BTX machine): 500 V, 0.7 ms; the cells were then transferred to a pre-warmed medium and cultured at 37° C. The binding of CD123 CART cells to the CD123-Fc recombinant protein was detected by FACS staining. […] Empty vector (Mock) was a control T cell without CAR molecule. A549 tumor cells were electroporated with different amounts of CD123 mRNA. The electroporation procedure was the same as described above, and only the parameters were changed, with the parameters 300 V, 0.5 ms used. CD123 expression in A549 tumor cells was detected by FACS staining of isotype or anti-CD123 antibodies and A549 cells electroporated with different amounts of CD123 mRNA. […] The cytotoxicity of CD123 CART cells against tumor cells was detected in an in vitro cytotoxicity assay. Tumor cells expressing EGFP or EGFP-A549 cells electroporated with different amounts of tumor antigen were seeded at 3000 cells/100 μL/well into a flat-bottom 96-well plate; CART cells were diluted to a proper concentration and seeded to the 100 μL/well tumor cells according to different E/T ratios (e.g., 10:1, 3:1, or 1:1), and the co-culture plate was placed into the IncuCyte S3 machine and scanning parameters were set. After scanning for 3 days, the total green object integrated intensity (GCU×μm²/well) was analyzed to calculate the killing efficiency.

[3] = target: T2, CD123-Fc recombinant protein; assay: flow cytometry of T cells electroporated with CAR mRNA, stained with CD123-Fc + PE-anti-hIgG-Fc; Mock 0.36
Method: as §1

CD40-Fc = target: T3, CD40-Fc ( for this staining reagent …, UniProt P25942); assay: flow cytometry, lentivirus-transduced T cells, CD40-Fc 2 µg/mL + PE-anti-Fc; UTD 0.66, M12 1.16
T3 construct: soluble Fc fusion; Staining reagent, detected with PE-anti-Fc
Method: The transduction efficiency of the CAR-T cells was detected as follows: […] CAR-T cells were plated into each well of a 96-well plate, and the plate was washed once with PBS. 50 μL of Meso-Fc or CD40-Fc protein at a final concentration of 2 μg/mL was added to each well, and the mixture was incubated for 30 min at 4° C. The cells were washed 3 times with PBS, and 50 μL of PE-anti-Fc antibody at a final concentration of 1 μg/mL was added to each well. The mixture was incubated at 4° C. for 30 min. After being washed twice with PBS, the cells were detected by a flow cytometer.

[4] = target: T4, CD40 (analyte of the SPR assay) (UniProt P25942 21-193); assay: SPR (Biacore 2000); antibody captured on protein A chip, CD40 3.125-100 nM; heterogeneous ligand model, ka2
T4 construct: Injected at 3.125-100 nM over captured antibody; also called CD40 antigen
Method: (§2) The affinity kinetics of the affinity-matured antibodies were detected using surface plasmon resonance (SPR) technique.
(§3) The experimental procedures were as follows: The binding affinities between the antibodies and the CD40 antigen were detected by SPR technique using Biacore 2000 (Cytiva, Sweden). All experiments were performed at 25° C. […] CD40 diluted in a 2-fold gradient (3.125-100 nM) was injected into the mobile phase. The association time was set at 90 s and the dissociation time at 300 s. The chip surface was regenerated by incubation with 10 mM Glycine-HCl (pH 1.5) for 30 s to remove the bound CD40 and antibody. The affinity of the antibody was simulated using a biphasic ligand model (heterogenerous ligand mode) in the build-in Biacore Evaluation software of the machine.

[5] = target: T4, CD40 (analyte of the SPR assay); assay: SPR (Biacore 2000); antibody captured on protein A chip, CD40 3.125-100 nM; heterogeneous ligand model, kd2
Method: as §3

[6] = target: T4, CD40 (analyte of the SPR assay); assay: SPR (Biacore 2000); antibody captured on protein A chip, CD40 3.125-100 nM; heterogeneous ligand model, ka1
Method: as §3

[7] = target: T4, CD40 (analyte of the SPR assay); assay: SPR (Biacore 2000); antibody captured on protein A chip, CD40 3.125-100 nM; heterogeneous ligand model, kd1
Method: as §2, §3

[8] = target: T1, recombinant human CD40-His antigen …; assay: ELISA; plate coated with CD40-His 2 µg/mL; HRP-anti-hFc
Method: The binding activities of the affinity-matured antibodies for antigen CD40 were detected by ELISA. The experimental procedures were as follows: [0637] 1. 50 μL of recombinant CD40-His protein at a concentration of 2 μg/mL was added to each well of an ELISA plate, and the plate was incubated at 4° C. overnight. […] 2. The next day, the ELISA plate was washed 3 times with PBST (containing 0.05% Tween-20). [0639] 3. 250 μL of 5% skim milk powder (dissolved in PBS) was added to each well of the ELISA plate, and the plate was incubated at room temperature for 2 h. [0640] 4. The plate was washed 3 times with PBST, antibodies with different dilution ratios were added to the ELISA plate at 50 μL/well, and the plate was incubated at room temperature for 60 min. [0641] 5. The plate was washed 3 times with PBST, 50 μL of HRP-anti-hFc antibody was added to each well, and the plate was incubated at room temperature for 60 min. [0642] 6. The plate was washed 3 times with PBST, 50 μL of TMB was added to each well, and after color development at room temperature, 50 μL of 2 M HCl was added to each well to stop the reaction. The plate was read at 450 nm.

[9] = target: T4, CD40 (analyte of the SPR assay); assay: SPR (Biacore 2000); antibody captured on protein A chip, CD40 3.125-100 nM; heterogeneous ligand model, KD2
Method: as §3

[10] = target: T4, CD40 (analyte of the SPR assay); assay: SPR (Biacore 2000); antibody captured on protein A chip, CD40 3.125-100 nM; heterogeneous ligand model, KD1
Method: as §3

B1: F2.103 (antibody, V domains shown)
VH: EVQLVESGGGLVQPGGSLRLSCAVSGFTFSTYWMHWVRQAPGKGLVWVSRINSDGSSTTYADSVKGRFTISRDNAKNTLYLQMNSLRAEDTAVYYCARDRVLWIGELSYYGMDVWGQGTTVTVSS
VL: DIQMTQSPSTLSASVGDRVTITCRASQSISNWLAWYQQKPGKAPKLLLYKASGLESGVPSRFSGSGSGTEFTLTINSLQPDDFATYYCQQSNSYSWTFGHGTKVEIKR
EC50 [1]: 0.0448 µg/mL and 305 nM

B2: C31 (scFv)
scFv: QPVLTQPPSMSGTPGQRVTISCSGGNSNIGDNSVSWYQQLPGTAPKLLIYNNNQRPLGVPDRFSGSKSGTSASLAIRGLQSEDEAHYYCSSWDDSLEGAQFGGGTKVTVLGGGGSGGGGSGGGGSEVQLVESGGGLVKPGGSLRLSCAASGFTFSDYYMSWIRQAPGKGLEWVSYISSSGSTIYYADSVKGRFTISRDNAKNSLYLQMNSLRAEDTAVYYCARGHQYYDFWSGYSNWFDPWGQGTLVTVSS
notes: also called anti-CD123 scFv-C31
binding result [2]: no binding | percent of cells in the CD123-Fc positive gate [3]: 0.64%

B3: A40C2828 (other)
membrane fusion protein with an anti-CD40 antibody part: QVQLVQSGAEVKKPGASVKVSCTASGFNIKDYYVHWVKQAPGQGLEWMGRIDPEDGDSKYAPKFQGKATMTADTSTSTVYMELSSLRSEDTAVYYCTTSYYVGTYGYWGQGTLVTVSSGGGGSGGGGSGGGGSDIQMTQSPSSLSASVGDRVTITCSASSSVSYMLWFQQKPGKAPKLLIYSTSNLASGVPSRFSGSGSGTDFTLTISSLQPEDFATYYCQQRTFYPYTFGGGTKVEIKRTASIEVMYPPPYLDNEKSNGTIIHVKGKHLCPSPLFPGPSKPFWVLVVVGGVLACYSLLVTVAFIIFWVRSKRSRLLHSDYMNMTPRRPGPTRKHYQPYAPPRDFAAYRS
notes: also called new A40C28; New A40C28
percent of cells in the gate (CD40-Fc): 39.8%

B4: 40.52 (antibody, V domains shown)
VH: QVQLVQSGAEVKKPGSSVKVSCKASGGTFSSYAISWVRQAPGQGLEWMGMINPSGGTTSYAQKFQGRVTMTRDTSTSTVYMELSSLRPEDTAVYYCARGFRMDQWGQGTLVTVSS
VL: QSALTQPPSASGSPGQSVTISCTGTSSDVGAYNFVSWYQQHPGNAPKLIIYDVRKRPSGIPDRFSASKSGNTASLTVSGLQADDEADYYCSSYAGNNNLVFGGGTKLTVL
notes: Tested as human IgG1 (VH on human CH1-Fc, VL on human CL)
kon [4]: 861000 M⁻¹ s⁻¹ | koff [5]: 0.0885 s⁻¹ | kon [6]: 1.34e+06 M⁻¹ s⁻¹ | koff [7]: 0.00115 s⁻¹ | EC50 [8]: 0.0975 µg/mL | EC50 [1]: 0.0492 µg/mL and 344 nM | Kd [9]: 103 nM | Kd [10]: 0.864 nM

B5: 4052.17 (antibody, V domains shown)
VH: QVQLVQSGAEVKKPGSSVKVSCKASGGTFSSYAISWVRQAPGQGLEWMGMINPSGGTTSYAQKFQGRVTMTRDTSTSTVYMELSSLRPEDTAVYYCARGFRMDQWGQGTLVTVSS
VL: QSALTQPPSASGSPGQSVTISCTGTSSDVGAYNFVSWYQQHPGNAPKLIIYDVRKRPSGIPDRFSASKSGNTASLTVSGLQADDEADYYCSSYAGNNEMVFGGGTKLTVL
kon [4]: 748000 M⁻¹ s⁻¹ | koff [5]: 0.0362 s⁻¹ | kon [6]: 1.49e+06 M⁻¹ s⁻¹ | koff [7]: 0.00102 s⁻¹ | EC50 [8]: 0.0944 µg/mL | Kd [9]: 48.4 nM | Kd [10]: 0.686 nM
